Measurements published in patent US20250092108A1.

Target: IL-2 receptors (high-affinity IL-2Rαβγ or intermediate-affinity IL-2Rβγ) on PBMC lymphocytes (UniProt P01589)
Assay: cell-based or functional assay

Chain of IL-2 receptors (high-affinity IL-2Rαβγ or intermediate-affinity IL-2Rβγ) on PBMC lymphocytes (P01589 22-272 limits assumed, chain 1 of 3): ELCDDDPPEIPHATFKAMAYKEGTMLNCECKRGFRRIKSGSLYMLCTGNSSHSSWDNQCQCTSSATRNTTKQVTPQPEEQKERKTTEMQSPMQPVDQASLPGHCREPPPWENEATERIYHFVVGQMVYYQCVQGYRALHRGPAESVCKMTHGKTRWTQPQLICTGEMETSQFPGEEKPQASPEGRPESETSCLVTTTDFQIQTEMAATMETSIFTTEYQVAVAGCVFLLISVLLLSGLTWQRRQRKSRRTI
Chain of IL-2 receptors (high-affinity IL-2Rαβγ or intermediate-affinity IL-2Rβγ) on PBMC lymphocytes (P14784 27-551 limits assumed, chain 2 of 3, further chain): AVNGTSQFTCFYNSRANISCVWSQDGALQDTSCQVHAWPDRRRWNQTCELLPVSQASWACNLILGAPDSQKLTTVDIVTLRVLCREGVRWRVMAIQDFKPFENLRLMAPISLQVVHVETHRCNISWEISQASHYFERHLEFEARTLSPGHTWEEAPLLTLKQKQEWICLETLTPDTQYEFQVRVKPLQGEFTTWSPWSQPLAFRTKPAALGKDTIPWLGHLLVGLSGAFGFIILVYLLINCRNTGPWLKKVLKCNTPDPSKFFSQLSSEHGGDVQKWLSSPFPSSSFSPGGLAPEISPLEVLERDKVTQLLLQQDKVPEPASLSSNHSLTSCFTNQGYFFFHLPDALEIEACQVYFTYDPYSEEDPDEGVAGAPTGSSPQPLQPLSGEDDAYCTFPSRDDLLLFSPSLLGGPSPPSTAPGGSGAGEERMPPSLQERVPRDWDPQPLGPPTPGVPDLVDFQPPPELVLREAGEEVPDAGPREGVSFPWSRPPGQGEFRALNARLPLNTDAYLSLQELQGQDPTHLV
Chain of IL-2 receptors (high-affinity IL-2Rαβγ or intermediate-affinity IL-2Rβγ) on PBMC lymphocytes (P31785 23-369 limits assumed, chain 3 of 3, further chain): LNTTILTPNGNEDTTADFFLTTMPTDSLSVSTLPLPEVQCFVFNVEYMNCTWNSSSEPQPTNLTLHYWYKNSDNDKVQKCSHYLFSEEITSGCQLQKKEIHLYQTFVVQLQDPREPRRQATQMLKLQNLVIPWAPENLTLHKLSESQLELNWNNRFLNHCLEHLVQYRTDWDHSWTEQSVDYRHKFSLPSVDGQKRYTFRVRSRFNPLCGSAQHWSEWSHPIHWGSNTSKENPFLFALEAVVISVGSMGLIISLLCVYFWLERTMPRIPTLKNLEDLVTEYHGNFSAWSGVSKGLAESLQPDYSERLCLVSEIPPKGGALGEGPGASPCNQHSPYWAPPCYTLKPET

EC50, induction of STAT5 phosphorylation (in vitro potency): 0.01 nM
Substance: XENP27193, an Fc-IL-2(V91K/C125A) fusion as described in WO 2014/153111 (from UniProt P60568 21-153) (Fc fusion)
